Laboratory results: patent publication US20100136061A1 (LA JOLLA INSTITUTE FOR ALLERGY AND IMMUNOLOGY, published 2010)
Substitutions are numbered along the chain they refer to.

T1: Heterotrimeric human LIGHT 32L-214E/32S-214K (combination of LIGHT-S32L and LIGHT-E214K subunits) expressed … (human, UniProt O43557 1-240; O43557 1-240)
T1 construct: Both polymorphic forms co-expressed in EL4 cells; also called combination of LIGHT-E214K and LIGHT-S32L
T1 chain 1: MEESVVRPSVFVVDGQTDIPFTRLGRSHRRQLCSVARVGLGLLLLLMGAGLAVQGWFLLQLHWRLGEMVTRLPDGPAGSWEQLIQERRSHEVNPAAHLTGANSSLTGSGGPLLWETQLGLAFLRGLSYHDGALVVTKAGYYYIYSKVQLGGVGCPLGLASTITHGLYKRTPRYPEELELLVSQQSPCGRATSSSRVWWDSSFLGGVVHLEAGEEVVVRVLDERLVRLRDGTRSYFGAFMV
T1 chain 2: T1 chain 1 with L32S, E214K

B1: DcR3-Fc (human Decoy Receptor 3 Fc fusion) (Fc fusion, UniProt O95407 30-300, looked up)
chain: VAETPTYPWRDAETGERLVCAQCPPGTFVQRPCRRDSPTTCGPCPPRHYTQFWNYLERCRYCNVLCGEREEEARACHATHNRACRCRTGFFAHAGFCLEHASCPPGAGVIAPGTPSQNTQCQPCPPGTFSASSSSSEQCQPHRNCTALGLALNVPGSSSHDTLCTSCTGFPLSTRVPGAEECERAVIDFVAFQDISIKRLQRLLQALEAPEGWGPTPRAGRAALQLKLRRRLTELLGAQDGALLVRLLQALRVARMPGLERSVRERFLPVH
notes: also called human DcR3; not shown: Fc part
B2: Full Length Human LIGHT, predominant form (32S-214E), expressed on EL4 cells (ligand)
chain: T1 chain 1 with L32S
notes: Stably expressed on mouse EL4 thymoma cells by retroviral transduction; also called p30 polypeptide; TNFSF-14

Tests used:
[1] = target: T1, Heterotrimeric human LIGHT …; experiment: competition flow cytometry, graded DcR3-Fc against constant LTβR-Fc on LIGHT expressing EL4 cells
Procedure: (§1) FIGS. 11A-11B. Competition binding assay for LTβR-Fc to LIGHT expressing EL4 cells in the presence of DcR3. […] Specific LTβR-Fc binding to the LIGHT expressing EL4 cells was detected with an anti-LTβR monoclonal antibody (BD-A8). (B) IC50 values were calculated by nonlinear regression analysis using Prism GraphPad (v4; San Diego, USA).

[2] = target: B1; experiment: as above
Procedure: as §1

Binder | IC50 ratio against the predominant form of LIGHT (SEQ ID NO:1) [1] [times] | binding result [2]
B1 | ~2.5 | –
B2 | – | binds
